Experimental data published in patent US20030219457A1.

Assays:
[1] = biological target: Crotalus durissus terrificus venom; test: ELISA, wells coated with 5 µg/ml C.d.t. venom; undiluted
[2] = biological target: Crotalus durissus terrificus venom; test: ELISA, C.d.t. venom-coated wells; dilution 1:3125
[3] = biological target: Crotalus durissus terrificus venom; test: ELISA, wells coated with 5 µg/ml C.d.t. venom; dilution 1:25
[4] = biological target: Crotalus durissus terrificus venom; test: ELISA, wells coated with 5 µg/ml C.d.t. venom; dilution 1:3125
[5] = biological target: Crotalus durissus terrificus venom; test: ELISA, wells coated with 5 µg/ml C.d.t. venom; dilution 1:125
[6] = biological target: Crotalus durissus terrificus venom; test: ELISA, wells coated with 5 µg/ml C.d.t. venom; dilution 1:5
[7] = biological target: Crotalus durissus terrificus venom; test: ELISA, C.d.t. venom-coated wells; dilution 1:125
[8] = biological target: Crotalus durissus terrificus venom; test: ELISA, C.d.t. venom-coated wells; dilution 1:625
[9] = biological target: Crotalus durissus terrificus venom; test: ELISA, C.d.t. venom-coated wells; dilution 1:312,500
[10] = biological target: Crotalus durissus terrificus venom; test: ELISA, wells coated with 5 µg/ml C.d.t. venom; dilution 1:625
[11] = biological target: Crotalus durissus terrificus venom; test: ELISA, C.d.t. venom-coated wells; dilution 1:5
[12] = biological target: Crotalus durissus terrificus venom; test: ELISA, C.d.t. venom-coated wells; dilution 1:62,500
[13] = biological target: Crotalus durissus terrificus venom; test: ELISA, C.d.t. venom-coated wells; dilution 1:25

Substance: preimmune IgY (antibody)
- absorbance (ELISA as in Example 4) [1]: 0.003 OD
- absorbance (ELISA as in Example 4) [2]: < 0 OD
- absorbance (ELISA as in Example 4) [3]: 0 OD
- absorbance (ELISA as in Example 4) [4]: 0.002 OD
- absorbance (ELISA as in Example 4) [5]: 0.003 OD
- absorbance (ELISA as in Example 4) [6]: < 0 OD
- absorbance (ELISA as in Example 4) [7]: < 0 OD
- absorbance (ELISA as in Example 4) [8]: < 0 OD
- absorbance (412 nm filter) [9]: 0.01 OD
- absorbance (ELISA as in Example 4) [10]: 0 OD
- absorbance (ELISA as in Example 4) [11]: < 0 OD
- absorbance (412 nm filter) [12]: 0.001 OD
- absorbance (ELISA as in Example 4) [13]: 0.016 OD
